Blank lines part the entries; values can stand above or below the molecule they belong to.
Key:
[1] = molecular target: Complement factor H (human) (UniProt P08603); experiment: ELISA
PPACK-thrombin = experiment: SPR
fibrinogen = molecular target: T1, fibrinogen (UniProt P02671-2 20-644; P02675 31-491; P02679-2 27-437); experiment: SPR
T1 sequence (looked up) 1: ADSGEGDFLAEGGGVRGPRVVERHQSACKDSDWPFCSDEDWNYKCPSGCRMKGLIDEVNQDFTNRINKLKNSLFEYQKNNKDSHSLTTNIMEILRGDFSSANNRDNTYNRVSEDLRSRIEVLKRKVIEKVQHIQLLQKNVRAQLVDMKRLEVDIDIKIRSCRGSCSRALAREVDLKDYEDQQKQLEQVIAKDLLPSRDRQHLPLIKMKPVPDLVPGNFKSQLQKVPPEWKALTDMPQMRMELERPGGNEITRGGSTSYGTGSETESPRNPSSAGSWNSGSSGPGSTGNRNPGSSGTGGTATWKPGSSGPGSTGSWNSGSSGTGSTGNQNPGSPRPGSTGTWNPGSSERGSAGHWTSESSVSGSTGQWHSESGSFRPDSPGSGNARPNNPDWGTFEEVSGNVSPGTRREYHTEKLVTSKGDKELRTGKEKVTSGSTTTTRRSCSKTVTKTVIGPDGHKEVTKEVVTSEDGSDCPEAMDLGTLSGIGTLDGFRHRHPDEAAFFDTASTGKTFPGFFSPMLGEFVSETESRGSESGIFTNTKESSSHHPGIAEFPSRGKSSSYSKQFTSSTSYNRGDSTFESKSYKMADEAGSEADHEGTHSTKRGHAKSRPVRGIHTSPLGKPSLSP
T1 sequence (looked up) 2: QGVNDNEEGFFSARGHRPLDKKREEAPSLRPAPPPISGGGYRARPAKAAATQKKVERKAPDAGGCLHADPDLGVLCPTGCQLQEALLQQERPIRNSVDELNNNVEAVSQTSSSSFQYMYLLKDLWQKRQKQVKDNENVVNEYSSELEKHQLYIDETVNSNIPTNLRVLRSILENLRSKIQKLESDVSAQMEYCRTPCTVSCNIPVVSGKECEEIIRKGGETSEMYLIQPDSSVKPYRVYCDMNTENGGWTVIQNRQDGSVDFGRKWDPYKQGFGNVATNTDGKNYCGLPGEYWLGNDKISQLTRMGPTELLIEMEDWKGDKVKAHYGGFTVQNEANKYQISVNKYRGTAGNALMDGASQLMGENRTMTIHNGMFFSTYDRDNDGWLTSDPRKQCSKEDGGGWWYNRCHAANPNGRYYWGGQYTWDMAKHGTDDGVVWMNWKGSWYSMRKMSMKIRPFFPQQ
T1 sequence (looked up) 3: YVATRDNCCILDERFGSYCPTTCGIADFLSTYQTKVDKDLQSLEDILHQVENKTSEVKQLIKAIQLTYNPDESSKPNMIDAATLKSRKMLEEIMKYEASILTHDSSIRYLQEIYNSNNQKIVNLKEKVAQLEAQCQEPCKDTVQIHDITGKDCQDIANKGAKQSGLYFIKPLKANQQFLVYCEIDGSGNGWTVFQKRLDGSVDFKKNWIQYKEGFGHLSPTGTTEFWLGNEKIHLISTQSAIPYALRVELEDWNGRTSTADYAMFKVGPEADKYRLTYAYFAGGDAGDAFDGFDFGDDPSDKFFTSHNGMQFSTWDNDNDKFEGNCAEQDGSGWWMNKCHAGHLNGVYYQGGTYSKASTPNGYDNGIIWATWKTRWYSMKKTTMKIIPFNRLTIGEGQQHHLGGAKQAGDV

FH-thrombin complex formed in plasma [1]: 62 nM
Molecule: PPACK-thrombin (enzyme)

Kd (PPACK-thrombin): 29.7 nM
Kd (fibrinogen): 38.2 nM
B1: Complement factor H (natural protein, human, UniProt P08603 19-1231, looked up)
chain: EDCNELPPRRNTEILTGSWSDQTYPEGTQAIYKCRPGYRSLGNVIMVCRKGEWVALNPLRKCQKRPCGHPGDTPFGTFTLTGGNVFEYGVKAVYTCNEGYQLLGEINYRECDTDGWTNDIPICEVVKCLPVTAPENGKIVSSAMEPDREYHFGQAVRFVCNSGYKIEGDEEMHCSDDGFWSKEKPKCVEISCKSPDVINGSPISQKIIYKENERFQYKCNMGYEYSERGDAVCTESGWRPLPSCEEKSCDNPYIPNGDYSPLRIKHRTGDEITYQCRNGFYPATRGNTAKCTSTGWIPAPRCTLKPCDYPDIKHGGLYHENMRRPYFPVAVGKYYSYYCDEHFETPSGSYWDHIHCTQDGWSPAVPCLRKCYFPYLENGYNQNYGRKFVQGKSIDVACHPGYALPKAQTTVTCMENGWSPTPRCIRVKTCSKSSIDIENGFISESQYTYALKEKAKYQCKLGYVTADGETSGSITCGKDGWSAQPTCIKSCDIPVFMNARTKNDFTWFKLNDTLDYECHDGYESNTGSTTGSIVCGYNGWSDLPICYERECELPKIDVHLVPDRKKDQYKVGEVLKFSCKPGFTIVGPNSVQCYHFGLSPDLPICKEQVQSCGPPPELLNGNVKEKTKEEYGHSEVVEYYCNPRFLMKGPNKIQCVDGEWTTLPVCIVEESTCGDIPELEHGWAQLSSPPYYYGDSVEFNCSESFTMIGHRSITCIHGVWTQLPQCVAIDKLKKCKSSNLIILEEHLKNKKEFDHNSNIRYRCRGKEGWIHTVCINGRWDPEVNCSMAQIQLCPPPPQIPNSHNMTTTLNYRDGEKVSVLCQENYLIQEGEEITCKDGRWQSIPLCVEKIPCSQPPQIEHGTINSSRSSQESYAHGTKLSYTCEGGFRISEENETTCYMGKWSSPPQCEGLPCKSPPEISHGVVAHMSDSYQYGEEVTYKCFEGFGIDGPAIAKCLGEKWSHPPSCIKTDCLSLPSFENAIPMGEKKDVYKAGEQVTYTCATYYKMDGASNVTCINSRWTGRPTCRDTSCVNPPTVQNAYIVSRQMSKYPSGERVRYQCRSPYEMFGDEEVMCLNGNWTEPPQCKDSTGKCGPPPPIDNGDITSFPLSVYAPASSVEYQCQNLYQLEGNKRITCRNGQWSEPPKCLHPCVISREIMENYNIALRWTAKQKLYSRTGESVEFVCKRGYRLSSRSHTLRTTCWDGKLEYPTCAKR

Source: doi:10.1101/2021.07.22.452893 (bioRxiv, 2021)
